Measurements taken from IntAct's records for PubMed 19914239.

B1: Folliculin (Rattus norvegicus (Rat)), Q76JQ2 (parent)
chain: MNAIVALCHFCELHGPRTLFCTEVLHAPLPQGAGSGDSPGQVEQAEEEEGGIQMSSRVRAHSPAEGASTDSSSPGPKKSDMCEGCRSLAVGHPGYISHDKETSIKYVSHQHPNHPQLFSIVRQACVRSLSCEVCPGREGPIFFGDEQHGFVFSHTFFIKDSLARGFQRWYSIIAIMMDRIYLINSWPFLLGKIRGIISELQGKALKVFEAEQFGCPQRAQRMNTAFTPFLHQRNGNAARSLTSLTSDDNLWACLHTSFAWLLKACGSRLTEKLLEGAPTEDTLVQMEKLADLEEESESWDNSEAEEEEKAPATAEGAEGRELASCPTESSFLSACGSWQPPKLSVFKSLRHMRQVLGAPSFRMLAWHVLMGNQVIWKSRDVNLVHSAFEVLRTMLPVGCVRIIPYSSQYEEAYRCNFLGLSPPVPIPAHVLASEFVVVVEVHTATRSNPHPAGCEDDQSLSKYEFVVTSGSPVAADRVGPTILNKMEAALTNQNLSVDVVDQCLVCLKEEWMNKVKVLFKFTKVDSRPKEDTQKLLSVLGASEEDNVKLLKFWMTGLSKTYKSHLMSTVRSPTAAESRN

Variants of: B1
Settings: with aapk1_rat Prkaa1, P54645
Chain of aapk1_rat Prkaa1, P54645 (P54645 whole entry): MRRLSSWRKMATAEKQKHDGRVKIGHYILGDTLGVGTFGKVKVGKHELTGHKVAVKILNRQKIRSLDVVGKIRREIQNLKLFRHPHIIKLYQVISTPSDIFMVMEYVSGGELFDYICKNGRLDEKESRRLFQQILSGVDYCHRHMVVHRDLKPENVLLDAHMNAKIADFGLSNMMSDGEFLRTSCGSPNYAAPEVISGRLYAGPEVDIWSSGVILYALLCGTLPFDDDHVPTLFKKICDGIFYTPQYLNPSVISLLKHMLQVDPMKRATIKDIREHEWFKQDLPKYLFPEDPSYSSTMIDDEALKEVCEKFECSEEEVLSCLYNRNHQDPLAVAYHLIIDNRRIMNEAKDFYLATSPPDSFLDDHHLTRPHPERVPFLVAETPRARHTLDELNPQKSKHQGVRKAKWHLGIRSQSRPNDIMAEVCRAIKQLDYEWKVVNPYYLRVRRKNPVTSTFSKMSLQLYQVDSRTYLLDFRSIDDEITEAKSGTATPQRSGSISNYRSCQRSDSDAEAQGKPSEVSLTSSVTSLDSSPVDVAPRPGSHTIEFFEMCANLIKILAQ

Variant | effect of a mutation on the interaction
S62D | increasing interaction

Variants of: B1
Settings: with aapk1_rat Prkaa1, P54645
Remark: another data set of the same source

Variant | effect of a mutation on the interaction
S62A | decreasing interaction
